Measurements reported in the supplement of paper PMC9170038.

tested on: MS2 coat protein; experiment: apparent KD of MS2 coat protein; higher = weaker reporter binding; details: Eterna round: R107; input ligand: theophylline 20 uM
Description: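 RNA-MaP round R107: designed RNA switches with theophylline, tryptophan, arginine or FMN aptamers are transcribed on-chip within common flanks. They are titrated with SNAP-549-labelled MS2 coat protein in RNA-MaP buffer (100 mM Tris pH 7.5, 80 mM KCl, 4 mM MgCl2), without ligand or with the indicated ligand. Median apparent KD per design.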

Q: How did the “apparent KD of MS2 coat protein” value turn out when “GAUGAACUAUAUGAUACCAGACAACAUGAGGAUCACCCAUGUGAAAGUCGUCCUCUGCCUGUCCCUUGGCAGCGUAUAGUUUAUC [XTheo B #14]” was run?
A: The value was 76.1 nM.

Q: With “GCUGCUUUGGGAAGGAGCGCUGCGGUAUUGUGGCGGACAUGAGGAUCACCCAUGUGCCUGCAGCAGGUAGGUCGCUUAGGGCAGC [EAP NP+V+V2 #17]” as the sequence, how does the “apparent KD of MS2 coat protein” value read?
A: The value was 92 nM.

Q: How did the “apparent KD of MS2 coat protein” value turn out when “CGCCUACAGGUGUACUAUUGUGGUGAAGAUACCAGAUAGCCCAAUAUCCCUUGGCAGCUUCAGACAUGAGGAUCACCCAUGUAUC [theeternabot_exclusion_MS2_Theo_A_30]” was run?
A: The value was 18.7 nM.

Q: How did the “apparent KD of MS2 coat protein” value turn out when “AAUAUAUAGACGGCCGCCACUGGAAUUAAUACAUGAGGAUCACCCAUGUGAAGAGGAUAAUAACACAGGACCGGGUCUUCAUGUA [SS Tryp B Tesla 1.2]” was run?
A: Its value is 137 nM.

Q: With “GUGUUUGUGUGAGAUACCAGUGAGGCCACAUGAGGAUCACCCAUGUCCCUCACUCCGGCCCACCCUUGGCAGCUCUUAUAGUAGU [Exclusion Theophylline B GF 23]” as the sequence, how does the “apparent KD of MS2 coat protein” value read?
A: Its value is 13.3 nM.

Q: With “AGAACAAAACUAAAUAAACAACUGGGUGAUACCAGCACAUGUGCGUGCCCUUGGCAGCAUCCGGCCACAUGAGGAUCACCCAUGU [Inarar]” as the sequence, how does the “apparent KD of MS2 coat protein” value read?
A: The value was 95.6 nM.

Q: For “CCGCACAUGAGGAUCACCCAUGUCAGGGAUACCAGCCCAGACAUGGGCCCUUGGCAGCUUUGUAGCUGACGAAAGUCAGCAGCGG [Omei Theo A SS A v2]”, which “apparent KD of MS2 coat protein” value is on record?
A: Its value is 62.3 nM.

Q: “GUUAUAACAAAAGUUGUAACAGUGGGUGAACGAGGACCGGUACGGCCGCCACUCGGACAUGAGGAUCACCCAUGUCCAUGUGAAA [AstrosExyTryA#15]” was tested. Which “apparent KD of MS2 coat protein” value did it give?
A: The value was 18.2 nM.

Q: “AAGAACCAGACGGCCGCCACUGGCCAGACAGGGUUCAUGGAAACAUGAGGAUCACCCAUGUCUUCCAGGACCGGGUCUGAAGAGG [Esbiisin]” was tested. Which “apparent KD of MS2 coat protein” value did it give?
A: Its value is 9.86 nM.

Q: “CGGUUUGUGAUGGAUACCAGCAGAGAAAAUGUUUAUCCUAACAUGAGGAUCACCCAUGUAUGCCCUUGGCAGCUGUUGUGGGCUG [8.V]” was tested. Which “apparent KD of MS2 coat protein” value did it give?
A: The value was 80.4 nM.

Q: “UGUAUGUGAUCUGAUACCAGCGAUGAUAACCUGAGGAUCACCCUGGUAUGGCGAAAGCCUCGCCCUUGGCAGCAGAUCGCAUACU” was tested. Which “apparent KD of MS2 coat protein” value did it give?
A: Its value is 402 nM.

Q: With “UGGCAAGAGGGAAGGAGCGUCAGCUGAGUCACAUGAGGAUCACCCAUGUCGCACAUAGUGUGACAGGUAGGUCGCCCUCUGCCGU [Vesosocera]” as the sequence, how does the “apparent KD of MS2 coat protein” value read?
A: The value was 152 nM.

Q: “GUUAUAGACGGAAGGAGCGCGGCCACAUGAGGAUCACCCAUGUAUUGUGUUGGUAAUAGGUCGCAGGUAGGUCGCCGAUUAAUGA [Same State - Arginine B / A]” was tested. Which “apparent KD of MS2 coat protein” value did it give?
A: The value was 61.7 nM.

Q: For “UCCUCCUCCGCAAGGAGGAGGAGUUGCGAUACCAGCACGGUAACGUGCCCUUGGCAGCGCACAUGAGGAUCACCCAUGUCAUGUU [#1 Exclusion - Theophylline A Attempt #11 (HarryS)]”, which “apparent KD of MS2 coat protein” value is on record?
A: The value was 24.5 nM.

Q: How did the “apparent KD of MS2 coat protein” value turn out when “UCGCCCAGGUAGGCUUAAUGGGAUAUGGAAGGAGCGCUGAUGCCAGCAGGUAGGUCGCCAACGGACAUGAGGAUCACCCAUGUAC [Same State - Arginine A (Freestyle 4)]” was run?
A: The value was 34.6 nM.

Q: “UUAAUCUUAUAUGAAAACAUAUAAGCAGAAGGAGCGUGAUAAAACACAGGUAGGUCGCUGAAGGGAACAUGAGGAUCACCCAUGU [AstrosSSArgA#4]” was tested. Which “apparent KD of MS2 coat protein” value did it give?
A: The value was 33.8 nM.

Q: “UAUCCACAUGAGGAUCACCCAUGUAGGGAAGGAGCGGUGAUUUCACCAGGUAGGUCGCCUUACUGAGGAGAACCGGUGGAAUCGU [Exclusion - Arginine A (Freestyle 30)]” was tested. Which “apparent KD of MS2 coat protein” value did it give?
A: The value was 40.6 nM.

Q: With “AGCUCGCAUCCUCAAGCGUCAAAGACGCGUCGAGGACCGGUACGGCCGCCACUCGACAAGAGGAUCACCCUUGUCUAAGCGAGCA [TrypAX 4 #SwitchBubble #AlternativeMS2 #MS2Late #CuTurnoff]” as the sequence, how does the “apparent KD of MS2 coat protein” value read?
A: Its value is 182 nM.

Q: “UUGGUACGACAGCUCAUAUAAGCAUGUGAUACCAGACUGGAAACAGUCCCUUGGCAGCACUUUACAUGAGGAUCACCCAUGUCGG [EThA NP+V+V2 #3 +-Same Structure]” was tested. Which “apparent KD of MS2 coat protein” value did it give?
A: Its value is 201 nM.

same assay, conditions: Eterna round: R107; input ligand: theophylline 2 mM

Q: With “AAGGACAUGAGGAUCACCCAUGUAGAGGAGCGAGGACCGGUACGGCCGCCACUCGGUGACAUUCGAUAAUGCCGAAUAAGACAUC [theeternabot_sameState_MS2_Trp_A_47]” as the sequence, how does the “apparent KD of MS2 coat protein” value read?
A: The value was 24.6 nM.

Q: “UGUUUUUAUCGAAGGAGCGCCGCAUGAGGAUCACCCAUGCACAUGAGGAUCACCCAUGUCUGGCAGGUAGGUCGCGAUCAAUGGG [Same State Arginine B GF 11]” was tested. Which “apparent KD of MS2 coat protein” value did it give?
A: Its value is 47.9 nM.

Q: For “GCUGCCAUACGAAGGAGCGCUGUUGCAAUGAGGCGAACAUGAGGAUCACCCAUGUGGCAAAAGCAGGUAGGUCGCGUAUGGCAGC [EAB #17]”, which “apparent KD of MS2 coat protein” value is on record?
A: The value was 23.4 nM.

Q: For “AUGACUAACAAAGAAGAUAAAAUGGGUGAACGAGGACCGGUACGGCCGCCACUCGGACAUGAGGAUCACCCAUGUCCAUGUGCAA [#23 Exclusion Tryptophan A]”, which “apparent KD of MS2 coat protein” value is on record?
A: The value was 20.4 nM.

Q: Which “apparent KD of MS2 coat protein” value does the source give for “ACGUAGAAGUCGGCCGCCACUGAUUUCAUGUUCAACAUGAGGAUCACCCAUGUACCUUAUGUUAACAGGACCGGGACGUAUACGA [JR_SSTryptoB_Sub001]” here?
A: The value was 442 nM.

Q: How did the “apparent KD of MS2 coat protein” value turn out when “AACAUGAGGAUCACCCAUGUUGUAAGGGAAGGAGCGCCUAAUCAGGCAGGUAGGUCGCCCAACAUGAGGAUCACCCAUGUUGUAU [Exclusion Arginine A 2]” was run?
A: The value was 66.9 nM.

Q: For “CUCCCGUGGUCGGCCGCCACUGGAGGCCUCGCGCGACAUGAGGAUCACCCAUGUUGGCCCGGCCUCAGGACCGGGAUCGCGUGAG [#1 Same State - Tryptophan B Attempt #7 (HarryS)]”, which “apparent KD of MS2 coat protein” value is on record?
A: Its value is 11.9 nM.

Q: How did the “apparent KD of MS2 coat protein” value turn out when “CGAUAUAAGACGGCCGCCACUAUUAAGUAACAAAAUAAACAUGAGGAUCACCCAUGUACAUGGGAUAGGACCGGGUCCAAUAACG [A1]” was run?
A: Its value is 166 nM.

Q: For “GGGCGCGUGGACUGGCGUGCUCCGCUCCGUCGAGGACCGGUACGGCCGCCACUCGACAUGAGGAUCACCCAUGUGUGAGCUCGCG [#1 Exclusion - Tryptophan A Attempt #17 (HarryS)]”, which “apparent KD of MS2 coat protein” value is on record?
A: The value was 259 nM.

Q: For “UUAUAAGUACCGGUCCUCAGAUCCUCAUGACGAGGACCGGUACGGCCGCCACUCGAAACAUGAGGAUCACCCAUGUAAUAAUAUC [Brourdmod09]”, which “apparent KD of MS2 coat protein” value is on record?
A: The value was 59.3 nM.

Q: With “UUUGACGGCGAUCUGGGUUUACCAGAUCGGCGAGGACCGGUACGGCCGCCACUCGUGUUUCUUUGACAUGAGGAUCACCCAUGUA [whbob_SS_trypto A_f2]” as the sequence, how does the “apparent KD of MS2 coat protein” value read?
A: The value was 60.5 nM.

Q: For “UUGUUGUUUGGAAGGAGCGUGGAUGAGUGUGGACAUGAGGAUCACCCAUGUUGGAUGAUACCGCAGGUAGGUCGCCGGGUGGUGG [11.aD]”, which “apparent KD of MS2 coat protein” value is on record?
A: The value was 300 nM.

Q: With “AUGGACGACGAUCUGGGAAAACCAGAUCGACGAGGACCGGUACGGCCGCCACUCGUGUUUAUUUAACAUGAGGAUCACCCAUGUA [#13 Tryptophan A Same State]” as the sequence, how does the “apparent KD of MS2 coat protein” value read?
A: The value was 65.5 nM.

Q: “GCUGCUUUGGGAAGGAGCGCUGCGGUAUUGUGGCGGACAUGAGGAUCACCCAUGUGCCUGCAGCAGGUAGGUCGCUUAGGGCAGC [EAP NP+V+V2 #17]” was tested. Which “apparent KD of MS2 coat protein” value did it give?
A: Its value is 79.8 nM.

Q: For “AAUAUAUAGACGGCCGCCACUGGAAUUAAUACAUGAGGAUCACCCAUGUGAAGAGGAUAAUAACACAGGACCGGGUCUUCAUGUA [SS Tryp B Tesla 1.2]”, which “apparent KD of MS2 coat protein” value is on record?
A: The value was 452 nM.

Q: With “CCGCACAUGAGGAUCACCCAUGUCAGGGAUACCAGCCCAGACAUGGGCCCUUGGCAGCUUUGUAGCUGACGAAAGUCAGCAGCGG [Omei Theo A SS A v2]” as the sequence, how does the “apparent KD of MS2 coat protein” value read?
A: The value was 101 nM.

Q: For “GUUAUAACAAAAGUUGUAACAGUGGGUGAACGAGGACCGGUACGGCCGCCACUCGGACAUGAGGAUCACCCAUGUCCAUGUGAAA [AstrosExyTryA#15]”, which “apparent KD of MS2 coat protein” value is on record?
A: The value was 21.6 nM.
